# B1: C3 mouse antibody (antibody, mouse IgG1, V domains shown)
# VH: EVKLVESGGGLVQPGGSLKLSCAASGFTFSSYTMSWVRQTPEKRLEWVAYITTGAGRTYYPDTVKGRFTISRDNAKNTLYLQMSSLKSEDTAMYYCARHRGDYWGQGTSVTVSS
# VL: SIVMTQTPKFLLVSAGDRVTITCKASQSVSNDVAWYQQKPGQSPKLLIYYASNRFTGVPDRFTGSGYGTDFTFTISTVQAEDLAVYFCQQDYSSPWTFGGGTKLEIK
# notes: Mouse monoclonal from a hybridoma; also called C3 antibody
# B2: A5D11-10 mouse antibody (antibody, V domains shown)
# VH: EVQLKESGPGLVQPSQSLSITCTVSGFSLTRYGVHWVRQSPGKGLEWLGVIWSGGSTDYNAAFISRLSISKDNSKSQVFFKMNSLQANDTAIYYCARNGYDGGYAMDYWGQGTSVTVSS
# VL: DIQMTQTTSSLSASLGDRVTISCRASQDISNYLNWYQQKPDGTVKLLIYYTSRLHSGVPSRFSGSGSRIDYSLTISNLEQEDFATYFCQQSDTLPPWTFGGGTKLEIK
# notes: Mouse monoclonal from a hybridoma; also called A5D11-10 antibody
# B3: B2E5-48 chimeric antibody (antibody, V domains shown)
# VH: QVQLQQPGAELVKPGASVKLSCKASGYTFTNYWMHWVKLRPGQGFEWIGEINPTNGGTDYNEKFKRKATLTVDKSSSTAYMQLSSLTSEDSAVYYCTIYTTALDYWGQGTTLTVSS
# VL: QIVLTQSPALMSASPGERVTLTCSASSSVGYMYWYQQKPGSSPKPWIYVTSNLASGVPARFSGSGSGTSYSLTISSMEAEDAATYYCQQWSSNPPTFGAGTKLELK
# B4: B2E5-48 mouse antibody (antibody, mouse IgG2b, V domains shown)
# VH: QVQLQQPGAELVKPGASVKLSCKASGYTFTNYWMHWVKLRPGQGFEWIGEINPTNGGTDYNEKFKRKATLTVDKSSSTAYMQLSSLTSEDSAVYYCTIYTTALDYWGQGTTLTVSS
# VL: QIVLTQSPALMSASPGERVTLTCSASSSVGYMYWYQQKPGSSPKPWIYVTSNLASGVPARFSGSGSGTSYSLTISSMEAEDAATYYCQQWSSNPPTFGAGTKLELK
# notes: Mouse monoclonal from a hybridoma; also called B2E5-48 antibody
# Experiments:
# [1] = target: T1, human Eva1 protein (human, UniProt O60487 27-150, limits assumed); test: SPR
# T1 construct: Soluble analyte in the SPR work and partner in the crystal; it calls it 'the antigen, that is, the Eva1 protein'; also called human-derived Eva1 protein; hEva1
# T1 sequence: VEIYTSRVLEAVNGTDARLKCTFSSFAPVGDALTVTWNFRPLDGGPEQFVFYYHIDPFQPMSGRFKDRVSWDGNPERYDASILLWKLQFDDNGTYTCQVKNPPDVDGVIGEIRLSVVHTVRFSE
# [2] = target: T2, human Eva1 Y104A mutant (human, UniProt O60487 27-150, limits assumed); test: SPR with alanine mutants
# T2 chain: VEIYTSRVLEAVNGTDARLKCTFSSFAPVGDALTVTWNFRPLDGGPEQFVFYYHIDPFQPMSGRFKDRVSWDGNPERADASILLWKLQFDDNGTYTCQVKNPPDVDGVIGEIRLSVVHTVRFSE
# [3] = target: T1, human Eva1 protein; test: SPR (Biacore), antibody captured by anti-mouse IgG, Eva1 flowed
# Excerpt: (§1) To select hybridomas for producing antibodies having a higher antigen affinity from the 28 hybridomas, a surface plasmon resonance assay system Biacore was used to calculate the KD value and so forth of each antibody (hereinafter also referred to as “candidate antibody”). Concretely, first, an antibody capable of capturing mouse IgG was immobilized on a dextran-coated sensor chip (CMS, manufactured by GE health care). Then, this antibody captured each candidate antibody on the sensor chip. Subsequently, the antigen, that is, the Eva1 protein was flowed. Note that, in flowing the antigen, a solution of 10 mM-Tris-HCl (pH 7.5), 150 mM-NaCl, and 3 mM-EDTA (pH 8.0) was used. Moreover, as a solution for dissociating the antigen from the candidate antibody (captured candidate-antibody resuscitation solution), a 10 mM glycine solution (pH 1.7) was used. Thus, using these solutions, the binding reaction and the dissociation reaction between each candidate antibody and the antigen were detected with Biacore, and analyzed using the attached software.
# [4] = target: T3, human Eva1 Y30A mutant (human, UniProt O60487 27-150, limits assumed); test: SPR
# T3 chain: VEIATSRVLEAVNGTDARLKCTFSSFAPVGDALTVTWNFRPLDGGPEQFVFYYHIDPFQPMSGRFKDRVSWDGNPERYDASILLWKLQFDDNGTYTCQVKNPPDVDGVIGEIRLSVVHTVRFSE
# [5] = target: T4, human Eva1 mutant with glutamic acid at position 102 substituted with alanine (human, UniProt O60487 27-150, limits assumed); test: SPR with alanine mutants
# T4 construct: also called E102A
# T4 chain: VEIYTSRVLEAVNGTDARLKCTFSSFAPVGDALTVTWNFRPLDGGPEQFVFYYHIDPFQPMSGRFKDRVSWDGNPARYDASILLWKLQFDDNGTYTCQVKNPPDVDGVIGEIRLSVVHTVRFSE
# [6] = target: T5, human Eva1 mutant with arginine at position 103 substituted with alanine (human, UniProt O60487 27-150, limits assumed); test: SPR with alanine mutants
# T5 construct: also called R103A
# T5 chain: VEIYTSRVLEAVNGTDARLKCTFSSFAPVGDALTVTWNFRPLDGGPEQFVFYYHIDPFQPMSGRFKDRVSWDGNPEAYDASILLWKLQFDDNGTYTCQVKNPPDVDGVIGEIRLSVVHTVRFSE
# [7] = target: T6, human Eva1 S96A mutant (human, UniProt O60487 27-150, limits assumed); test: SPR with alanine mutants
# T6 chain: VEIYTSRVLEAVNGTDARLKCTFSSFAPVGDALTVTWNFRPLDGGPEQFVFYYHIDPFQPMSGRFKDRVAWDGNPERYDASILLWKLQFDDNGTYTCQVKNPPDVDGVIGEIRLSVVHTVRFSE
# [8] = target: T1, human Eva1 protein; test: SPR (Biacore), as for the mouse antibodies
# Excerpt: as §1
# Further, the binding reaction and the dissociation reaction between the B2E5-48 chimeric antibody and the antigen were detected with Biacore as in the case of the mouse antibodies.
# [9] = target: T7, human Eva1 mutant (A43V, S96V, Q85R) (human, UniProt O60487 27-150, limits assumed); test: SPR
# T7 construct: Human residues replaced by the mouse ones
# T7 chain: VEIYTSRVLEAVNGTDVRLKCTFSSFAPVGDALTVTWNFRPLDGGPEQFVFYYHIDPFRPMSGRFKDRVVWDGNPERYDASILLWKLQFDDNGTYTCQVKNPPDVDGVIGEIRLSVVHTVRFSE
# [10] = target: T8, human Eva1 mutant (R33G, V34A, V134L, I135V, E137T) (human, UniProt O60487 27-150, limits assumed); test: SPR
# T8 construct: Human residues replaced by the mouse ones
# T8 chain: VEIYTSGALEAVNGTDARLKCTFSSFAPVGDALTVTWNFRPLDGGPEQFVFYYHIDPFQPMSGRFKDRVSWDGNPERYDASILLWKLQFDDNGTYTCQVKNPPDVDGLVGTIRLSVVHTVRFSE
# [11] = target: T9, human Eva1 mutant (L68R, P72R) (human, UniProt O60487 27-150, limits assumed); test: SPR
# T9 construct: Human residues replaced by the mouse ones; also called (L68R and P72R) double mutant
# T9 chain: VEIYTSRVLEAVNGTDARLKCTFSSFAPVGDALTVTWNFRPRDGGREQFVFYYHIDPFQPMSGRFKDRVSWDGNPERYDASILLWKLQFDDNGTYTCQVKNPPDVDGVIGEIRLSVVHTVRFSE
# [12] = target: T10, human Eva1 mutant (I81M) (human, UniProt O60487 27-150, limits assumed); test: SPR
# T10 construct: Human residue replaced by the mouse one
# T10 chain: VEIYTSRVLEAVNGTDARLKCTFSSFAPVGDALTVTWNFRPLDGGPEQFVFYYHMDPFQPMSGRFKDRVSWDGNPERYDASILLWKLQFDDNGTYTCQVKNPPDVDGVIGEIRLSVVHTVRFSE
# [13] = target: T11, human Eva1 L68R mutant (human, UniProt O60487 27-150, limits assumed); test: SPR
# T11 chain: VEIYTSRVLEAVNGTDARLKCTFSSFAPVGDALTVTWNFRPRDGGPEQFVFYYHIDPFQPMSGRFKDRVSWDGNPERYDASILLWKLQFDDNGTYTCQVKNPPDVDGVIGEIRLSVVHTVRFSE
# [14] = target: T12, human Eva1 P72R mutant (human, UniProt O60487 27-150, limits assumed); test: SPR
# T12 chain: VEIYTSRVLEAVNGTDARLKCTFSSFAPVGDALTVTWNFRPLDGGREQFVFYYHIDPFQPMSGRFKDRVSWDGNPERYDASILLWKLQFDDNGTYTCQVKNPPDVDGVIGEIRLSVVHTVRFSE
# [15] = target: T13, mouse Eva1 protein (mouse, UniProt O70255 27-150, limits assumed); test: SPR
# T13 construct: Used in SPR; also called mouse-derived Eva1 protein; mEva1
# T13 sequence: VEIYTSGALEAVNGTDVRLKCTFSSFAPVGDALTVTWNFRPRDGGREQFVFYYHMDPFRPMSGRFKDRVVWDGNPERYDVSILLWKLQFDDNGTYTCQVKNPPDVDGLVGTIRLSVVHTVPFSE
binder,measurement,setting,value
B1,KD for human Eva1 against KD for mouse Eva1,[1],~0.1
same,binding result,[2],binds
same,Kd,[3],9.1 nM
same,koff,[3],0.00831 s⁻¹
same,kon,[3],918000 M⁻¹ s⁻¹
B2,binding result,[4],no binding
same,fold increase of KD against wild type human Eva1,[5],~25 fold
same,fold increase of KD against wild type human Eva1,[6],~25 fold
same,binding result,[7],binds
same,Kd,[3],5.83 nM
same,koff,[3],0.00212 s⁻¹
same,kon,[3],364000 M⁻¹ s⁻¹
B3,Kd,[8],15.2 nM
same,koff,[8],0.00747 s⁻¹
same,kon,[8],490000 M⁻¹ s⁻¹
B4,binding result,[9],binds
same,binding result,[10],binds
same,binding result,[11],no binding
same,binding result,[12],binds
same,binding result,[13],binds
same,binding result,[14],no binding
same,binding result,[15],no binding
same,Kd,[3],11.7 nM
same,koff,[3],0.00808 s⁻¹
same,kon,[3],689000 M⁻¹ s⁻¹

# Source: US20190256610A1 (NATIONAL UNIVERSITY CORPORATION HOKKAIDO UNIVERSITY, published 2019)
